{"source": "patent US20150297694A1", "about": "“CANCER DIAGNOSTIC AND THERAPEUTIC METHOD TARGETING MOLECULES EXPRESSED IN CANCER STEM CELLS” (NIIGATA UNIVERSITY, priority 2012, published 2015)", "molecules": {"B1": {"name": "DEAD/H (Asp-Glu-Ala-Asp/His) box polypeptide 3, X-linked (protein, listed as Homo sapiens)", "chain": "MSHVAVENALGLDQQFAGLDLNSSDNQSGGSTASKGRYIPPHLRNREATKGFYDKDSSGWSSSKDKDAYSSFGSRSDSRGKSSFFSDRGSGSRGRFDDRGRSDYDGIGSRGDRSGFGKFERGGNSRWCDKSDEDDWSKPLPPSERLEQELFSGGNTGINFEKYDDIPVEATGNNCPPHIESFSDVEMGEIIMGNIELTRYTRPTPVQKHAIPIIKEKRDLMACAQTGSGKTAAFLLPILSQIYSDGPGEALRAMKENGRYGRRKQYPISLVLAPTRELAVQIYEEARKFSYRSRVRPCVVYGGADIGQQIRDLERGCHLLVATPGRLVDMMERGKIGLDFCKYLVLDEADRMLDMGFEPQIRRIVEQDTMPPKGVRHTMMFSATFPKEIQMLARDFLDEYIFLAVGRVGSTSENITQKVVWVEESDKRSFLLDLLNATGKDSLTLVFVETKKGADSLEDFLYHEGYACTSIHGDRSQRDREEALHQFRSGKSPILVATAVAARGLDISNVKHVINFDLPSDIEEYVHRIGRTGRVGNLGLATSFFNERNINITKDLLDLLVEAKQEVPSWLENMAYEHHYKGSSRGRSKSSRFSGGFGARDYRQSSGASSSSFSSSRASSSRSGGGGHGSSRGFGGGGYGGFYNSDGYGGNYNSQGVDWWGN"}}, "key": {"[1]": {"system": "CD3-positive T cells from peripheral blood", "experiment": "Detection of DDX3X-responding IFN-γ-producing T cells in peripheral blood (co-culture with DDX3X-pulsed dendritic cells, ELISA)", "format": "cell-based, human", "design": "key to DDX3X-specific T cell: “Yes” means detection of DDX3X-specific T cells in blood; “No” means no detection of DDX3X-specific T cells in blood", "conditions": "for DDX3X-specific T cell: DC pulsed with DDX3X 3.3 μg/ml, co-culture 24 hours, IFN-γ", "protocol": "Peripheral blood (15 ml) was collected after informed consent. A mononulclear cell fraction was collected by density-gradient centrifugation using Lymphoprep(trade name) (Cosmo Bio), and CD14^+ cells were isolated with CD14 microbeads and autoMACS. The CD14^+ cells were cultured with rhGM-CSF (1 ng/ml, a gift from Kirin) and rhIL-4 (10 ng/ml, R&D systems), and differentiated into dendritic cells by day 5. The dendritic cells were cultured overnight in medium containing synthesized DDX3X protein (3.3 μg/ml) or the same concentration of OVA, and CD11c-positive cells purified with CD11c microbeads and autoMACS were used as antigen-presenting cells. In order to remove naive T cells and regulatory T cells from the CD14 fraction cells, CD62L^high cells were removed by using anti-CD62L antibody (1H3)-conjugated Dynabeads. The CD62L^low CD14^− cells were cultured for 48 hours on a BD BioCoat(trade name) T cell activation plate (Becton Dickinson), and cultured for 4 days in medium containing 20 U/ml of rhIL-2 (a gift from Shionogi). FACS confirmed that 95% or more of the cells were CD3-positive T cells, and the CD3-positive T cells were used as responding cells. The responding cells (1×10^5) and antigen-presenting cells (1×10^4) were co-cultured for 24 hours in a 200-μl medium in a round-bottom 96-well plate, and the IFN-γ concentration was measured by ELISA using the supernatant collected after co-culture. Unpulsed dendritic cells, DDX3X-pulsed dendritic cells, and OVA-pulsed dendritic cells were used as the antigen-presenting cells. In Table 3, “Yes” means that IFN-γ production from T cells was confirmed with significant difference only in a co-culture with the DDX3X-pulsed dendritic cells. In the table, “% Treg” and “% Teff” represent the proportions of the regulatory T cells and the effector T cells, respectively, with respect to the total number of CD4^+ T cells as determined by the FACS analysis of the mononulclear cell fraction immediately after isolation from the peripheral blood. CD62L^high CD25^+CD4^+ T cells and CD62L^low CD4^+ T cells were used as regulatory T cells (Treg) and effector T cells (Teff), respectively, in the FACS analysis, as reported in Koyama K, Kagamu H, et al. Reciprocal CD4^+ T-cell balance of effector CD62L^low CD4^+ and CD62L^high CD25^+ CD4^+ regulatory T cells in small cell lung cancer reflects disease stage. Clin Cancer Res. 2008; 14: 6770-9. Detection of DDX3X-responding T cells was not possible in any of the healthy individuals (HV), small cell lung cancer patients with distal metastasis (SCLC-ED), and cured small cell lung cancer patients. However, the experiment found the presence of DDX3X-responding, specific IFN-γ-producing T cells in 5 of 12 small cell lung cancer (SCLC-LD) patients with no distal metastasis."}, "[2]": {"system": "CD62Llow CD4-positive or CD8-positive T cells", "experiment": "Cytokine ELISA (IFN-γ, IL-17) of CD62Llow lymph node T cells stimulated with antigen-loaded dendritic cells", "format": "cell-based, mice", "from_the_text": "T cells were stimulated with immobilized anti-CD3 monoclonal antibodies or antigen-pulsed BM-DCs in CM. Supernatants were harvested and assayed for IFN-γ, IL-4, and IL-17 content by a quantitative “sandwich” enzyme immunoassay using a murine IFN-γ, IL-4, and IL-17 ELISA kit (Genzyme), according to the manufacturer's protocol.\nThe inventors investigated whether T cells primed with synthesized DDX3X antigen could recognize CD133-positive melanoma cells.\nThe CD62L^low CD4-positive or CD8-positive T cells (1×10^5 cells) isolated from the lymph nodes were stimulated with 1×10^4 dendritic cells in 200 μl of complete medium (CM) for 48 hours in a 96-well plate. The dendritic cells used for stimulation were stimulated overnight with the same number of irradiated CD133-positive tumor cells or CD133-negative tumor cells (5,000 cGy), or synthesized DDX3X (5 μg/ml). The dendritic cells were purified with CD11c microbeads prior to co-culture."}, "[3]": {"conditions": "T cells from lymph nodes draining DC pulsed with synthesized DDX3X, stimulated 48 hours with DC loaded with CD133-positive or CD133-negative tumor cells"}}}
{"molecule": "B1", "values": [{"measurement": "DDX3X-specific T cell", "setting": "[1]; Cured SCLC subjects", "value": "No"}, {"measurement": "DDX3X-specific T cell", "setting": "[1]; HV (healthy individuals)", "value": "No"}, {"measurement": "DDX3X-specific T cell", "setting": "[1]; SCLC-ED subjects", "value": "No"}, {"measurement": "DDX3X-specific T cell", "setting": "[1]; SCLC-LD subjects", "value": "Yes and No"}, {"measurement": "detection of DDX3X-responding T cells", "setting": "[1]; healthy individuals (HV), SCLC-ED and cured small cell lung cancer patients", "value": "not possible"}, {"measurement": "patients with DDX3X-responding, specific IFN-γ-producing T cells", "setting": "[1]; small cell lung cancer (SCLC-LD) patients with no distal metastasis", "value": "5 of 12"}, {"measurement": "IFN-γ and IL-17 secretion by DDX3X-specific CD4-positive T cells", "setting": "[2]; [3]", "value": "secreted IFN-γ and IL-17 in a melanoma CSC-specific manner"}, {"measurement": "response of DDX3X-specific CD8-positive T cells", "setting": "[2]; [3]", "value": "responded to both CD133-negative and CD133-positive melanoma cells"}, {"measurement": "cytokine production by melanoma CSC-specific CD4-positive T cells", "setting": "[2]; T cells primed with vaccinated CD133-positive melanoma cells, stimulated with DC pulsed with synthesized DDX3X (5 μg/ml)", "value": "produced cytokines in a DDX3X-specific manner"}, {"measurement": "cytokine production upon DDX3X stimulation compared with stimulation with the melanoma CSC itself", "setting": "[2]; melanoma CSC-specific CD4-positive T cells", "value": "produced even more cytokines"}]}
